Drawing on the Human Domainome abundance scans (Beltran et al. 2025), this text covers abundance fitness for 167 variants.

± gives the uncertainty stated by the source.

The chains are these.
B1: Transcription factor SOX-11, residues 50 to 117; numbered along this chain, P35716 (parent)
chain: KRPMNAFMVWSKIERRKIMEQSPDMHNAEISKRLGKRWKMLKDSEKIPFIREAERLRLKHMADYPDYK

Variants of B1 are the subject of this data set. The data set can be described thus: abundance fitness (aPCA) (normalised: wild type 0, dead -1); higher = more abundant; growth selection in yeast, the domain comes from the species named. Particulars: Homo sapiens.
As to K12I, the abundance fitness was -0.099 ± 0.059.

In the case of K12A, the abundance fitness is 0.175 ± 0.062. Consider R15A, for which the abundance fitness is -0.217 ± 0.091.

Consider R15G, for which the abundance fitness was -0.397 ± 0.065.

R15V: the abundance fitness was -0.397 ± 0.077. The value for R15M was -0.142 ± 0.2; that for R15I was -0.267 ± 0.072; that for R15N was -0.527 ± 0.1. As to R15E, the abundance fitness came to 0.101 ± 0.17. Take R15S: the abundance fitness is -0.154 ± 0.057. With R15C, the abundance fitness was -0.384 ± 0.076.

Take R15L: the abundance fitness is -0.445 ± 0.092.

Take R15K: the abundance fitness was -0.151 ± 0.15. Consider R15F, for which the abundance fitness was -0.601 ± 0.1. The value for R15P was -1.1 ± 0.33. For R15D, the abundance fitness was -1.11 ± 0.21.

As to R15Y, the abundance fitness is -0.081 ± 0.07. Take R15Q: the abundance fitness was -0.108 ± 0.18. The value for R15T was -0.073 ± 0.085; that for S22F was 0.118 ± 0.049. In the case of S22Q, the abundance fitness is -0.09 ± 0.14.

As to S22H, the abundance fitness turned out to be 0.052 ± 0.062. In the case of S22R, the abundance fitness is -0.513 ± 0.091.

Turning to S22Y, the abundance fitness amounted to 0.165 ± 0.046.

On to S22E, for which the abundance fitness is -0.112 ± 0.11. On to S22T, for which the abundance fitness was -0.072 ± 0.064. Regarding S22P, the abundance fitness was -0.841 ± 0.16. Take S22I: the abundance fitness was -0.539 ± 0.066. To S22V belongs -0.442 ± 0.064; to S22K, -0.352 ± 0.19; to S22W, -0.024 ± 0.1. With S22L, the abundance fitness was -0.522 ± 0.076. On to S22G, for which the abundance fitness was -0.587 ± 0.075. Regarding S22D, the abundance fitness stood at 0.042 ± 0.059. For the variant S22M, the abundance fitness is -0.302 ± 0.12. Consider S22A, for which the abundance fitness is -0.061 ± 0.066.

As to S11T, the abundance fitness is -0.602 ± 0.2. S11H: the abundance fitness is -1.37 ± 0.45.

On to S11G, for which the abundance fitness was -0.283 ± 0.12. To S11I belongs -1.19 ± 0.27; to S11N, -0.399 ± 0.14. As to S11D, the abundance fitness was -1.11 ± 0.25. S11C: the abundance fitness was -0.4 ± 0.1. With S11L, the abundance fitness was -0.857 ± 0.18. Turning to S11Y, the abundance fitness is -0.267 ± 0.098. With S11F, the abundance fitness is -0.471 ± 0.096. In the case of S11R, the abundance fitness is -0.767 ± 0.21. For S11P, the abundance fitness was -0.599 ± 0.2.

For S11V, the abundance fitness is -0.597 ± 0.15. The value for M4L was -0.188 ± 0.064; that for M4I was 0.158 ± 0.05; that for M4G was -0.28 ± 0.063.

In the case of M4F, the abundance fitness was -0.186 ± 0.053.

On to M4Y, for which the abundance fitness was -0.256 ± 0.06. On to M4C, for which the abundance fitness was -0.787 ± 0.11. To M4V belongs 0.005 ± 0.051; to M4Q, -0.248 ± 0.15; to M4R, -0.874 ± 0.11. As to M4K, the abundance fitness is -0.539 ± 0.23. Take M4D: the abundance fitness worked out at 0.059 ± 0.065. To M4E belongs -0.004 ± 0.18; to M4T, -0.145 ± 0.079. With M4S, the abundance fitness was -0.334 ± 0.052.

With M4N, the abundance fitness is -0.292 ± 0.058. M4H: the abundance fitness is -0.423 ± 0.086. As to M4W, the abundance fitness is -0.251 ± 0.13. In the case of M8W, the abundance fitness was -0.446 ± 0.18. Turning to M8I, the abundance fitness is -0.117 ± 0.047. To M8T belongs 0.165 ± 0.062; to M8C, -0.168 ± 0.061; to M8R, -0.239 ± 0.069. With M8A, the abundance fitness stood at 0.101 ± 0.068.

Take M8D: the abundance fitness turned out to be 0.456 ± 0.069. As for M8G, the abundance fitness is -0.079 ± 0.067. On to M8F, for which the abundance fitness was -0.14 ± 0.051.

On to M8Y, for which the abundance fitness is -0.089 ± 0.051. Turning to M8P, the abundance fitness is -0.609 ± 0.09. To M8L belongs -0.039 ± 0.047; to M8E, 0.299 ± 0.15. For M8H, the abundance fitness was -0.033 ± 0.059. The value for M8V was -0.131 ± 0.062; that for M8Q was 0.324 ± 0.083. On to M8K, for which the abundance fitness is -0.394 ± 0.16. As for M8N, the abundance fitness was -0.111 ± 0.054. Consider E20W, for which the abundance fitness was -0.577 ± 0.17. Regarding E20I, the abundance fitness was -0.569 ± 0.085. Take E20P: the abundance fitness was -0.812 ± 0.16. Consider E20F, for which the abundance fitness is -0.496 ± 0.067. To E20Q belongs -0.83 ± 0.34; to E20H, -0.319 ± 0.14. Consider E20T, for which the abundance fitness was -0.185 ± 0.13. Regarding E20A, the abundance fitness is -0.348 ± 0.11. To E20Y belongs -0.781 ± 0.1; to E20L, -0.27 ± 0.079. To E20N belongs -0.236 ± 0.08. As to E20M, the abundance fitness is -0.723 ± 0.28. E20S: the abundance fitness is -0.36 ± 0.063.

For E20R, the abundance fitness was -0.705 ± 0.12. To M19S belongs -0.264 ± 0.056; to M19Q, -0.202 ± 0.15. As to M19G, the abundance fitness was -0.435 ± 0.076. To M19N belongs -0.426 ± 0.071. The value for M19R was -0.24 ± 0.063; that for M19C was -0.29 ± 0.075. Consider M19T, for which the abundance fitness was -0.103 ± 0.064.

In the case of M19I, the abundance fitness was -0.062 ± 0.057. With M19W, the abundance fitness is -0.762 ± 0.19. The value for M19K was 0.021 ± 0.15; that for M19D was -0.649 ± 0.1.

Consider M19E, for which the abundance fitness is -0.069 ± 0.16. Regarding M19V, the abundance fitness is -0.042 ± 0.052. For M19H, the abundance fitness was -0.187 ± 0.079. In the case of M19P, the abundance fitness is -0.769 ± 0.14. Consider N5W, for which the abundance fitness was -0.438 ± 0.13. In the case of N5E, the abundance fitness is -0.172 ± 0.16. For N5C, the abundance fitness was -0.321 ± 0.064. For the variant N5Q, the abundance fitness was -0.831 ± 0.27. With N5P, the abundance fitness was -0.544 ± 0.089. On to N5K, for which the abundance fitness was -0.956 ± 0.26. Consider N5M, for which the abundance fitness was -0.724 ± 0.15.

For the variant N5F, the abundance fitness is -0.712 ± 0.08.

On to N5I, for which the abundance fitness was -0.601 ± 0.071. Take N5R: the abundance fitness was -0.852 ± 0.11. N5V: the abundance fitness was -0.491 ± 0.069. The value for N5H was -0.621 ± 0.09; that for N5Y was -0.524 ± 0.061; that for N5L was -0.65 ± 0.075. As for N5G, the abundance fitness was -0.433 ± 0.069.

Regarding N5S, the abundance fitness is 0.104 ± 0.045. To N5A belongs -0.474 ± 0.096; to N5D, 0.147 ± 0.055; to N5T, 0.149 ± 0.056. To Q21Y belongs -0.581 ± 0.077. In the case of Q21D, the abundance fitness was -0.267 ± 0.067. Regarding Q21E, the abundance fitness was 0.148 ± 0.13. On to Q21P, for which the abundance fitness is -0.437 ± 0.13. For the variant Q21N, the abundance fitness is -0.156 ± 0.056.

In the case of Q21S, the abundance fitness is -0.172 ± 0.047. Turning to Q21W, the abundance fitness is -0.313 ± 0.15. For the variant Q21L, the abundance fitness is -0.353 ± 0.064. Take Q21M: the abundance fitness is -0.35 ± 0.11. Q21C: the abundance fitness is -0.323 ± 0.055. As to Q21R, the abundance fitness was -0.235 ± 0.068. With Q21H, the abundance fitness was -0.194 ± 0.062. The value for Q21I was -0.13 ± 0.056; that for Q21F was -0.661 ± 0.081. As to Q21G, the abundance fitness is -0.256 ± 0.057. For Q21K, the abundance fitness is -0.303 ± 0.21. Consider Q21T, for which the abundance fitness was -0.13 ± 0.077. Q21V: the abundance fitness was -0.223 ± 0.055.

In the case of I18D, the abundance fitness is -0.741 ± 0.12.

On to I18Q, for which the abundance fitness was -0.869 ± 0.33.

In the case of I18N, the abundance fitness was -0.625 ± 0.097.

Take I18E: the abundance fitness was -0.355 ± 0.17. I18W: the abundance fitness is -0.256 ± 0.11. For the variant I18T, the abundance fitness was -0.884 ± 0.17.

As to I18G, the abundance fitness is -0.772 ± 0.075. I18P: the abundance fitness was -0.619 ± 0.21. For I18V, the abundance fitness was -0.307 ± 0.059.

For the variant I18K, the abundance fitness was -0.856 ± 0.29. As to I18A, the abundance fitness is -0.521 ± 0.11. To I18Y belongs -0.34 ± 0.075; to I18C, -0.714 ± 0.1; to I18S, -0.732 ± 0.083. Regarding I18F, the abundance fitness was -0.688 ± 0.1. For the variant I18H, the abundance fitness is -0.918 ± 0.17. With I18R, the abundance fitness is -0.945 ± 0.12.
